Measurements published in patent US20200147199A1.

What was measured:
Test in all cases: SPR
Human FcRn = molecular target: Human FcRn
Human FcγRIIaH131 = molecular target: Human FcγRIIaH131
NHP FcγRIII = molecular target: NHP FcγRIII
NHP FcγRIIb = molecular target: NHP FcγRIIb
NHP FcγRIIa = molecular target: NHP FcγRIIa
Human FcγRIIIaV158 = molecular target: Human FcγRIIIaV158
Human FcγRIIb = molecular target: Human FcγRIIb

Row | Kd (Human FcγRIIaH131) [nM] | Kd (NHP FcγRIII) [nM] | Kd (NHP FcγRIIb) [nM] | Kd (NHP FcγRIIa) [nM] | Kd (Human FcγRIIIaV158) [nM] | Kd (Human FcγRIIb) [nM] | Substance | Kd (Human FcRn) [nM]
1 |  |  |  |  |  |  | GRLR | 22.4
2 | 2090 | 424 | 2690 | 7970 | 233 | 6380 | LS | 4.76
